The values below come from patent USRE49026.

The experiment concerns the target recombinant human IL-23R/Fc chimera (human) (UniProt Q5VWK5). Description: ELISA of conditioned media on coated IL-23R-Fc, anti-p40 detection. A general note: In an ELISA, binding on a coated surface is turned into a signal by an enzyme label.

recombinant human IL-23R/Fc chimera (human), sequence (Q5VWK5 24-353 limits assumed, change not shown): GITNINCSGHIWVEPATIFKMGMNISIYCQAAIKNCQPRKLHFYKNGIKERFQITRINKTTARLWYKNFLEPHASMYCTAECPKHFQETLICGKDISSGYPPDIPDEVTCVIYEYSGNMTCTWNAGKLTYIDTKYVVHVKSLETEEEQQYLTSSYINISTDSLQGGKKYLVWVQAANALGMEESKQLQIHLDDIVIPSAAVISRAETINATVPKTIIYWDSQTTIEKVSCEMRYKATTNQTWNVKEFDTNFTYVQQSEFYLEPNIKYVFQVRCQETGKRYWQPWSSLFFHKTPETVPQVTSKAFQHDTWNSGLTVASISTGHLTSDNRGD

Turning to “W2 IL-23 cytokine (p19 W2 to G mutant + p40) (from UniProt Q9NPF7 20-189; P29460 23-328) (ligand)”, the reduction of binding compared to WT is 50%.
